Legend:
Experiment in all cases: SPR Biacore, avidity (bivalent, apparent KD), antigen-Fc on SA chip
[1] = molecular target: T1, recombinant biotinylated monomeric Fc fusion of cynomolgus Folate Receptor 1 (cy FolR1 ECD-AcTev-Fcknob-Avi … (cynomolgus, UniProt P0DOX5 223-449 = IgG part, biotin on the C-terminal Avi tag))
T1 construct: also called cyFolR1-Fc; cyno FolR1
Method: (§1) The avidity of the interaction between the anti-FolR1 IgG or T cell bispecifics and the recombinant folate receptors was determined as described below (Table 25).
(§2) Recombinant biotinylated monomeric Fc fusions of human, cynomolgus and murine Folate Receptor 1 (FolR1-Fc) were directly coupled on a SA chip using the standard coupling instruction (Biacore, GE Healthcare). The immobilization level was about 300-400 RU. The anti-FolR1 IgGs or T cell bispecifics were passed at a concentration range from 3.7 to 900 nM with a flow of 30 μL/minutes through the flow cells over 180 seconds. The dissociation was monitored for 240 or 600 seconds. The chip surface was regenerated after every cycle using a double injection of 30 sec 10 mM Glycine-HCl pH 2. Bulk refractive index differences were corrected for by subtracting the response obtained on reference flow cell immobilized with recombinant biotinylated murine CD134 Fc fusion. The binding curves resulting from the bivalent binding of the IgG or T cell bispecifics were approximated to a 1:1 Langmuir binding (even though it is a 1:2 binding) and fitted with that model to get an apparent KD representing the avidity of the bivalent binding. The apparent avidity constants for the interactions were derived from the rate constants of the fitting using the Bia Evaluation software (GE Healthcare). For the 1+1 T cell bispecifics format the interaction is a real 1:1 and the KD represents affinity since there is only one FolR1 binder in this construct.

[2] = molecular target: T2, recombinant biotinylated monomeric Fc fusion of murine Folate Receptor 1 (mu FolR1 ECD-AcTev-Fcknob-Avitag … (murine, UniProt P0DOX5 223-449 = IgG part, biotin on the C-terminal Avi tag))
T2 construct: also called muFolR1-Fc; murine FolR1
Method: as §1, §2

[3] = molecular target: T3, recombinant biotinylated monomeric Fc fusion of human Folate Receptor 1 (huFolR1 ECD-AcTev-Fcknob-Avi tag … (human, UniProt P0DOX5 223-449 = IgG part, biotin on the C-terminal Avi tag))
T3 construct: also called huFolR1-Fc; human FolR1-Fc
Method: as §1, §2

B1: 36F2 IgG (antibody, V domains shown)
VH: QVQLVQSGAEVKKPGASVKVSCKASGYTFTSYYMHWVRQAPGQGLEWMGIINPSGGSTSYAQKFQGRVTMTHDTSTSTVYMELSSLRSEDTAVYYCARSFFTGFHLDYWGQGTLVTVSS
VL: EIVLTQSPGTLSLSPGERATLSCRASQSVSSSYLAWYQQKPGQAPRLLIYGASSRATGIPDRFSGSGSGTDFTLTISRLEPEDFAVYYCQQYTNEHYYTFGQGTKVEIK
[1]
  Kd: 6 nM
  koff: 0.0175 s⁻¹
  kon: 2.78e+06 M⁻¹ s⁻¹
[2]
  Kd: 2 nM
  koff: 0.000823 s⁻¹
  kon: 428000 M⁻¹ s⁻¹
[3]
  Kd: 6 nM
  koff: 0.013 s⁻¹
  kon: 2.07e+06 M⁻¹ s⁻¹
